B1: AH01950 (prokaryotically expressed antibody product) (Fab, V domains shown)
VH: QVQLQESGPGLVKPSQTLSLTCTVSGYSITSGYTWHWIRQHPGKGLEWIGYIHYSGSTKYNPSLKSRVTISRDTSKNQFSLKLSSVTAADTAVYYCARNSLFASWGQGTLVTVSS
VL: DIVLTQSPDSLAVSLGERATINCRASESVDTYGDSFMHWFQQKPGQPPKLLIYRASNLESGVPDRFSGSGSGTDFTLTISSLQAEDVAVYYCQQSNEAPYTFGGGTKLEIK
B2: AH01964 (prokaryotically expressed antibody product) (Fab, V domains shown)
VH: QVQLQESGPGLVKPSQTLSLTCTVSGYSITSGYTWHWIRQHPGKGLEWIGYIHYSGSTKYNPSLKSRVTISRDTSKNQFSLKLSSVTAADTAVYYCARNSLFASWGQGTLVTVSS
VL: DIVMTQSPDSLAVSLGERATINCRASESVDTYGDSFMHWYQQKPGQPPKLLIYRASNLESGVPDRFSGSGSGTDFTLTISSLQAEDVAVYYCQQSNEAPYTFGGGTKL
B3: AH01946 (prokaryotically expressed antibody product) (Fab, V domains shown)
VH: QVQLQESGPGLVKPSQTLSLTCTVSGYSITSGYTWHWIRQHPGKGLEWIGYIHYSGSTKYNPSLKSRVTISRDTSKNQFSLKLSSMTAADTAVYYCARNSLFASWGQGTLVTVSS
VL: DIVLTQSPDSLAVSLGERATINCRASESVDTYGDSFMHWFQQKPGQPPKLLIYRASNLESGVPDRFSGSGSGTDFTLTISSVQAEDVAVYYCQQSNEAPYTFGGGTKLEIK
B4: AH02033 (prokaryotically expressed antibody product) (Fab, V domains shown)
VH: QVQLQESGPGLVKPSQTLSLTCTVTGYSITSGYTWHWIRQHPGKGLEWMGYIHYSGSTKYNPSLKSRFTISRDTSKNQFSLKLSSVTAADTAVYYCARNSLFASWGQGTLVTVSS
VL: DIVLTQSPDSLAVSLGERATINCRASESVDTYGDSFMHWFQQKPGQPPKLLIYRASNLESGIPDRFSGSGSGTDFTLTISSLQAEDVAVYYCQQSNEAPYTFGGGTKLEIK
B5: AH02030 (prokaryotically expressed antibody product) (Fab, V domains shown)
VH: QVQLQESGPGLVKPSQTLSLTCTVTGYSITSGYTWHWIRQHPGKGLEWIGYIHYSGSTKYNPSLKSRFTITRDTSKNQFSLKLSSVTAADTAVYYCARNSLFASWGQGTLVTVSS
VL: DIVLTQSPDSLAVSLGERATINCRASESVDTYGDSFMHWYQQKPGQPPKLLIYRASNLESGVPDRFSGSGSRTDFTLTISSLQAEDVAVYYCQQSNEAPYTFGGGTKLEIK
B6: AH02029 (prokaryotically expressed antibody product) (Fab, V domains shown)
VH: QVQLQESGPGLVKPSQTLSLTCTVTGYSITSGYTWHWIRQHPGKGLEWIGYIHYSGSTKYNPSLKSRVSISRDTSKNQFSLKLSSVTAADTAVYYCARNSLFASWGQGTLVTVSS
VL: DIVLTQSPDSLAVSLGERATINCRASESVDTYGDSFMHWYQQKPGQPPKLLIYRASNLESGVPDRFSGSGSGTDFTLTISSLQAEDVAVYYCQQSNEAPYTFGGGTKLEIK
B7: AH01963 (prokaryotically expressed antibody product) (Fab, V domains shown)
VH: QVQLQESGPGLVKPSQTLSLTCTVSGYSITSGYTWHWIRQHPGKGLEWIGYIHYSGSTKYNPSLKSRVTISRDTSKNQFSLKLSSVTAADTAVYYCARNSLFASWGQGTLVTVSS
VL: DIVLTQSPDSLAVSLGERATINCRASESVDTYGDSFMHWYQQKPGQPPKLLIYRASNLESGVPDRFSGSGSGTDFTLTISSVQAEDVAVYYCQQSNEAPYTFGGGTKLEIK
B8: AH01947 (prokaryotically expressed antibody product) (Fab, V domains shown)
VH: QVQLQESGPGLVKPSQTLSLTCTVSGYSITSGYTWHWIRQHPGKGLEWIGYIHYSGSTKYNPSLKSRVTISVDTSKNQFSLKLSSVTAADTAVYYCARNSLFASWGQGTLVTVSS
VL: DIVLTQSPDSLAVSLGERATINCRASESVDTYGDSFMHWFQQKPGQPPKLLIYRASNLESGVPDRFSGSGSGTDFTLTISSLQAEDVAVYYCQQSNEAPYTFGGGTKLEIK
B9: AH01947 (antibody, human IgG1, V domains shown)
VH: QVQLQESGPGLVKPSQTLSLTCTVSGYSITSGYTWHWIRQHPGKGLEWIGYIHYSGSTKYNPSLKSRVTISVDTSKNQFSLKLSSVTAADTAVYYCARNSLFASWGQGTLVTVSS
VL: DIVLTQSPDSLAVSLGERATINCRASESVDTYGDSFMHWFQQKPGQPPKLLIYRASNLESGVPDRFSGSGSGTDFTLTISSLQAEDVAVYYCQQSNEAPYTFGGGTKLEIK
notes: also called mPD-L1Ab-CBM clone AH01947
B10: AH01964 (antibody, human IgG1, V domains shown)
VH: QVQLQESGPGLVKPSQTLSLTCTVSGYSITSGYTWHWIRQHPGKGLEWIGYIHYSGSTKYNPSLKSRVTISRDTSKNQFSLKLSSVTAADTAVYYCARNSLFASWGQGTLVTVSS
VL: DIVMTQSPDSLAVSLGERATINCRASESVDTYGDSFMHWYQQKPGQPPKLLIYRASNLESGVPDRFSGSGSGTDFTLTISSLQAEDVAVYYCQQSNEAPYTFGGGTKL
notes: also called mPD-L1Ab-CBM clone AH01964
B11: AH02033 (antibody, human IgG1, V domains shown)
VH: QVQLQESGPGLVKPSQTLSLTCTVTGYSITSGYTWHWIRQHPGKGLEWMGYIHYSGSTKYNPSLKSRFTISRDTSKNQFSLKLSSVTAADTAVYYCARNSLFASWGQGTLVTVSS
VL: DIVLTQSPDSLAVSLGERATINCRASESVDTYGDSFMHWFQQKPGQPPKLLIYRASNLESGIPDRFSGSGSGTDFTLTISSLQAEDVAVYYCQQSNEAPYTFGGGTKLEIK
notes: also called mPD-L1Ab-5BM clone AH02033
B12: AH02030 (antibody, human IgG1, V domains shown)
VH: QVQLQESGPGLVKPSQTLSLTCTVTGYSITSGYTWHWIRQHPGKGLEWIGYIHYSGSTKYNPSLKSRFTITRDTSKNQFSLKLSSVTAADTAVYYCARNSLFASWGQGTLVTVSS
VL: DIVLTQSPDSLAVSLGERATINCRASESVDTYGDSFMHWYQQKPGQPPKLLIYRASNLESGVPDRFSGSGSRTDFTLTISSLQAEDVAVYYCQQSNEAPYTFGGGTKLEIK
notes: also called mPD-L1Ab-5BM clone AH02030
B13: Chimeric antibody (as ranked in Table 2) (Fab, V domains shown)
VH: DVQLQESGPDLVKPSQSLSLTCTVTGYSITSGYTWHWIRQFPGNKLEWMGYIHYSGSTKYNPSLKSRFSITRDTSKNQFFLQLNSMTAEDTATYYCARNSLFASWGHGTLVTVSA
VL: DIVLTQSPASLAVSLGQRATISCRASESVDTYGDSFMHWFQQKPGQPPKLLIYRASNLESGIPARFSGSGSRTDFTLTINPVEADDVATYYCQQSNEAPYTFGGGTKLEIK

T2 sequence (Q9NZQ7 19-238 limits assumed): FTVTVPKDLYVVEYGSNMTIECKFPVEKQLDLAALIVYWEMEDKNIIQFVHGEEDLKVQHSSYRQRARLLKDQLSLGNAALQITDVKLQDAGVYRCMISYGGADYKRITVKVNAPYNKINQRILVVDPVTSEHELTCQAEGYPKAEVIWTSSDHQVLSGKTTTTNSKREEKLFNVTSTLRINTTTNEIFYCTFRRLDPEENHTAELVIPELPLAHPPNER

The target in one experiment is T1, PD-L1/Fc (UniProt Q9NZQ7 19-238, limits assumed).
T1 construct: not shown: Fc part
T1 sequence (Q9NZQ7 19-238 limits assumed): as above
Description: SPR (Biacore 8K), prokaryotically expressed antibody as ligand, PD-L1/Fc as analyte, 1:1 binding model.
In the case of B1, the Kd (usually a measure of binding affinity in units of concentration) was determined as 36.7 pM; the koff (in general, the first-order rate constant of dissociation) worked out at 1.9e-05 s⁻¹; the kon (commonly the second-order rate constant of association) stood at 518000 M⁻¹ s⁻¹.

On to B2, for which binding was characterised by a dissociation constant (Kd) of 46.8 pM, the koff was found to be 2.48e-05 s⁻¹ and the kon was found to be 530000 M⁻¹ s⁻¹.

Consider B3, for which the Kd was found to be 9.4 pM, the koff stood at 4.72e-06 s⁻¹ and the kon was found to be 502000 M⁻¹ s⁻¹.

In the case of B4, the Kd worked out at 0.0676 pM, the dissociation rate constant (koff) came to 2.71e-08 s⁻¹ and the association rate constant (kon) came to 401000 M⁻¹ s⁻¹.

In the case of B5, the Kd came out at 43.9 pM, the koff worked out at 1.58e-05 s⁻¹ and the kon came to 359000 M⁻¹ s⁻¹.

Regarding B6, the Kd was 56.8 pM, the koff turned out to be 1.93e-05 s⁻¹ and the on-rate constant (kon) came out at 339000 M⁻¹ s⁻¹.

B7: the Kd worked out at 34.4 pM, the koff amounted to 1.63e-05 s⁻¹ and the kon is 474000 M⁻¹ s⁻¹.

Molecule B8 returned a Kd of 82.2 pM, a koff of 4.38e-05 s⁻¹ and a kon of 533000 M⁻¹ s⁻¹.

The next experiment addresses T2, PD-L1-HIS recombinant protein (human, UniProt Q9NZQ7 19-238, limits assumed).
T2 construct: not shown: His tag
Description: SPR (Biacore 8K), antibody captured on chip, PD-L1-HIS analyte 2.5-80 nM, 1:1 binding model. The protocol:
The chip surface was equilibrated with HBS-EP buffer at a flow rate of 10 μl/min for 5 min, and then a 1:1 mixture of “NHS+EDC” was injected at a flow rate of 10 μl/min for 420 sec to activate the chip. The capture antibody (goat anti-murine IgG) diluted in 10 mM sodium acetate buffer was injected for about 420 sec at a flow rate of 10 μl/min for coupling, and finally ethanolamine was injected for 420 sec at a flow rate of 10 μl/min to block the surface.
Three pre-cycles were performed with the HBS-EP buffer as a sample to balance the chip to stabilize the baseline. The antibody diluted in HBS-EP buffer was injected for 30 sec at a flow rate of 10 μl/min (where the antibody-antigen binding signal was controlled to about 100 RU by adjusting the capture time between 0-5 min), and then the chip was equilibrated with the buffer for 1 min. The low-concentration antigen 2.5 nM PD-L1-HIS was injected at a flow rate of 30 μl/min for 240/300 seconds, to allow the antigen to bind to the antibody, and then the buffer was injected at a flow rate of 30 μl/min for 720/600 seconds for dissociation. 50 mM HCl were injected three times each for 15 s at a flow rate of 100 μl/min for regeneration, to complete one cycle. The antigen concentration was changed (such as 5 nM PD-L1-HIS) to carry out the cycle for measurement at a next gradient concentration until all gradient concentrations (2.5 nM, 5 nM, 10 nM, 20 nM, 40 nM, 80 nM PD-L1-HIS) and the replicate (such as 10 nM PD-L1-HIS) were tested.
The experimental data was double subtracted (minus the background values of the control channel and zero concentration), and fitted to the “1:1 binding” model in the Biacore 8K evaluation software. Biacore 8K was used to determine the affinity of the antibody to the PD-L1-HIS recombinant protein.
In the case of B9, the Kd turned out to be 3110 pM, the koff was 0.000714 s⁻¹ and the kon is 230000 M⁻¹ s⁻¹.

As to B10, the Kd was determined as 1760 pM, the koff was 0.00037 s⁻¹ and the kon is 210000 M⁻¹ s⁻¹.

In the case of B11, the Kd is 903 pM, the off-rate constant (koff) worked out at 0.000166 s⁻¹ and the on-rate constant (kon) turned out to be 184000 M⁻¹ s⁻¹.

For B12, the Kd worked out at 1170 pM, the koff was found to be 0.000216 s⁻¹ and the kon was found to be 185000 M⁻¹ s⁻¹.

For a further experiment, the target named is T1, PD-L1/Fc. As to the kind of experiment: SPR (Biacore 8K), antibody as ligand, PD-L1/Fc as analyte, 1:1 binding model. A general note: SPR reads the build-up and loss of mass on a sensor chip optically.
In turn, B13 registered a Kd of 58 pM, a koff of 2.03e-05 s⁻¹ and a kon of 349000 M⁻¹ s⁻¹.

Values taken from US20220073618A1 (NANJING GENSCRIPT BIOTECH, published 2022).
